Data from the supplement of paper PMC10126150.
± gives the standard deviation of the averaged measurements.

tested on: ATP; assay: switch fluorescence ratio, 500 uM ATP over buffer (Cy3 cluster intensity, sum of 5 cycles each) (fold (ratio)); higher = stronger signal-on switching upon ATP binding; sequences stand for … in TCGTCGGCAGCGTCAGATGTGTATAAGAGACAGTTTTTTTTTTTTTTTTTTTTTTTTT…TC; details: aptamer strand: ATP DNA aptamer (quencher-CACCTGGGGGAGTATTGCGGAGGAAGG + anchor), 100 nM annealed; ATP concentration: 500 uM
How it was run: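 Five buffer/ATP imaging cycles were run on Cy3-labelled switching-strand clusters on a modified Illumina MiSeq flow-cell, with NaOH stripping and re-annealing between cycles. In each cycle, clusters annealed to 100 nM quencher-labelled ATP aptamer were imaged in selection buffer, then after 15 min with 500 uM ATP at 22 °C. Per cluster, the fluorescence ratio is summed target-cycle over summed buffer-cycle Cy3 intensity, averaged per switch-domain sequence. Only clusters within 100-1000 RFU were kept.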
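Further: ATP exposure 15 min at 22 °C before imaging.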

Sequence | switch fluorescence ratio
GTCAGGGGGA | 1.07 ± 0.14
GCGAATATCT | 1.02 ± 0.037
ATGACCGGTT | 1.01 ± 0.046
CATAGCTTTT | 1.01 ± 0.012
AATTAGCTGT | 0.9743 ± 0.0085
TGGTCTAGTG | 0.968 ± 0.043
ATCACGTTTT | 0.991 ± 0.051
TCAGGTGGGT | 1.22 ± 0.22
GAATATACGC | 1.04 ± 0.021
TAGTGTATTG | 1.01 ± 0.012
TCTTCAAGTT | 0.988 ± 0.031
GGGGGGTCGA | 1 ± 0.021
GCGTAAAACG | 0.977 ± 0.04
TTATGGAAGA | 0.98 ± 0.026
GCTCTTGATG | 0.98 ± 0.041
ATTTGAAGGC | 0.9629 ± 0.0082
AGGGACCTTA | 1.04 ± 0.05
AAAAAGATTG | 1.06 ± 0.08
ATACGGTTTT | 0.996 ± 0.026
AGAATATGTT | 0.983 ± 0.014
GCGGATTAGG | 1.03 ± 0.0072
TCGGAGTCTC | 1.127 ± 0.0029
AAGTTATTAC | 1 ± 0.032

Sequence | switch fluorescence ratio
TTGCTGGCGC | 1.036 ± 0.0055
GAGGGTCTCT | 0.98005 ± 0.00068
TTCGGGGTAG | 0.963 ± 0.048
CAGAGATTAG | 0.996 ± 0.043
TCCGTTTCTG | 0.971 ± 0.018
GTGTTTTATT | 1.01 ± 0.036
GAGCGTAGGG | 0.9537 ± 0.0089
GGGTAGGGGT | 1.02 ± 0.074
GTTTTCGGGG | 1.04 ± 0.029
GTTCCAGTTT | 1.039 ± 0.006
CAAATGGGTT | 1.01 ± 0.083
TCAGTGACGT | 0.9827 ± 0.0096
CAGTCCGTTT | 1.02 ± 0.012
GGCATTAAAG | 0.9841 ± 0.0078
GAGACCAATC | 1.023 ± 0.008
ACAGCTGAGC | 0.999 ± 0.0079
CTAGCAACGC | 1.08 ± 0.028
GGGAAAGGAC | 1.03 ± 0.032
GTCGGGAGGT | 0.989 ± 0.015
GGTCGGGGGT | 1.03 ± 0.039
GACACCAAAT | 1.039 ± 0.0035
ACTCGACAGG | 1.8 ± 0.013
ACATATGGTA | 0.9801 ± 0.0085

Sequence | switch fluorescence ratio
AACTTTTACG | 1.074 ± 0.0069
TCAGGGAGGG | 1.06 ± 0.15
GTAGTATTTT | 0.994 ± 0.028
CACGCTAGTA | 1.04 ± 0.021
CGTGTATTCT | 0.968 ± 0.034
GCGCAGTGGC | 1.23 ± 0.058
AAATGGTTTT | 1 ± 0.024
TTAAGCACTT | 1.19 ± 0.062
AGAGTATGAA | 1 ± 0.032
GGGAATAGAG | 0.99 ± 0.035
CGACTTTCAA | 1.05 ± 0.032
CGTGTTCTGG | 0.994 ± 0.031
TCGTCGCTTT | 1.04 ± 0.026
GTGGTACGGA | 1.0044 ± 0.00029
CGCGAAAATG | 1.02 ± 0.022
TAGGGCTGGC | 1 ± 0.08
AGCACGCACA | 1.77 ± 0.06
GATCTTGCCT | 1.02 ± 0.026
GGCACTGGAT | 1.02 ± 0.02
TCGGGGGTCA | 0.9781 ± 0.0051
TTTGAACGTT | 1 ± 0.037
TTACAGGGAG | 1.02 ± 0.01
TTTGTTAGC | 1.03 ± 0.019

Sequence | switch fluorescence ratio
AGATGTAGTG | 0.9948 ± 0.0036
GTTATTTATT | 0.995 ± 0.047
TTCGCTGCCT | 1.03 ± 0.019
CAGGGGCGTG | 0.9921 ± 0.0079
TTGGGCTCAG | 0.982 ± 0.013
TTTTCCGCTT | 1.55 ± 0.69
ATATGTCTGG | 0.953 ± 0.017
GGTATCAAGT | 0.9675 ± 0.0076
CGGTTGGGTG | 0.97348 ± 6.3e-05
CGTTGTCATC | 1.01 ± 0.06
AGAGTATGGG | 1.01 ± 0.038
GTGGTATATG | 0.997 ± 0.0073
TGATATAGCA | 1.03 ± 0.013
TTTTTCCCCC | 1.04 ± 0.05
GGATTGTTTG | 1.009 ± 0.01
GCGTAAAATT | 0.9737 ± 0.0057
CGCTAACTTG | 1.01 ± 0.047
GCTTCAGGAG | 1.27 ± 0.024
GGCGAGTTAC | 1.021 ± 0.0012
TTTTTGGTA | 0.985 ± 0.011
TATGTCATTT | 0.957 ± 0.011
TGTAGGTGTT | 0.999 ± 0.077
CGGGATATAT | 0.994 ± 0.028

Sequence | switch fluorescence ratio
TAGGGGGTCG | 0.971 ± 0.042
TAGGAAGGCG | 1.01 ± 0.047
CTGCGAATAA | 1.4 ± 0.098
TGGTCCAGAA | 0.977 ± 0.016
CGAATAGGCG | 0.976 ± 0.048
CGATTATAGG | 1.003 ± 0.0096
TATCACACTG | 1.09 ± 0.12
TCGGTACATA | 1.037 ± 0.0066
GACTTTTGTA | 0.9812 ± 0.0045
ATGACTTGCG | 1 ± 0.023
GAGGAGGAAT | 1.01 ± 0.017
GGGGGTATGA | 1.02 ± 0.022
CGGTGACTGA | 0.9569 ± 0.008
TTCCAGGGTG | 1.71 ± 0.92
TTTTATCATG | 0.9758 ± 0.0028
AGTGTTGCCG | 0.965 ± 0.069
ATGGTGTATC | 0.981 ± 0.026
AGGTAAACGT | 1.05 ± 0.083
TAAGTTAGTG | 1 ± 0.016
GGGGTATACT | 1.021 ± 0.0052
AGATATTGGG | 0.992 ± 0.068
TGACAGTGGG | 0.959 ± 0.04
CGGGGCAGGG | 1.01 ± 0.062

Sequence | switch fluorescence ratio
AAATTATTT | 1.02 ± 0.051
TTTTAGTATG | 1 ± 0.02
GACGAAGTTT | 1.32 ± 0.7
TGTCAGGGGA | 1.018 ± 0.007
ATGTTATAGT | 0.98 ± 0.04
CAGGGTAGAG | 1 ± 0.043
ATTCTCCATT | 1.0229 ± 0.00088
TTTCTGGTGC | 1.16 ± 0.085
CGAGGCGCG | 0.9537 ± 0.008
AAAAGGGACG | 1.05 ± 0.12
GCGGAGGGGC | 1.0106 ± 3e-05
TTTTAACTTC | 1 ± 0.014
GATGAGCCTA | 1.01 ± 0.073
CGGGTGTGTC | 1.045 ± 0.0042
AGGGGGACTG | 0.9635 ± 0.0022
TAATTCAGGG | 1.03 ± 0.032
AAAGATTTCG | 0.971 ± 0.027
CGAGGTTAGG | 1.06 ± 0.062
AAAAGAATCG | 0.996 ± 0.049
TCCAGGTTAG | 1.17 ± 0.03
GGGAGGAAAA | 1.02 ± 0.016
GGACTACCGC | 1.14 ± 0.019
TTTTACCCGC | 1.11 ± 0.078

Sequence | switch fluorescence ratio
TTTTGTTGTC | 0.984 ± 0.037
TACGATGGTA | 0.9792 ± 0.0049
TAGGATGTGT | 1 ± 0.0056
GAGAAGCGGT | 1.004 ± 0.008
TAGGAAGGAG | 0.98 ± 0.06
TTTTTATAAC | 1 ± 0.031
TTTGAGTATT | 0.992 ± 0.047
TAAGGGCTGC | 1.036 ± 0.0084
ACTTAGGGGA | 1.02 ± 0.036
AGTAACGGTA | 1.04 ± 0.012
TCTAAGGGGG | 1.015 ± 0.0074
TTGTTGCTTA | 1.05 ± 0.006
ATGTGGTACT | 0.979 ± 0.027
TCCCTACGAT | 1.06 ± 0.016
AGTACGTTGG | 0.966 ± 0.034
TCAATGGTTT | 1.12 ± 0.21
GATACCCTTG | 1.01 ± 0.013
TATTTTTATA | 0.992 ± 0.017
TGGCAGGCAC | 1.04 ± 0.012
